Experimental data taken from article PMC2174084.

Target: rabbit skeletal muscle actin, polymerized (F-actin) (rabbit) (UniProt P68135)
Assay: co-sedimentation

full-length Kelch (purified, recombinant; ORF1 cDNA) (natural protein)
stoichiometry N (Kelch per actin (molar ratio)): 0.25
